# Experimental data taken from publication PMC2696590.
# Assays:
# SR142948 = assay: competition binding assay against [3H]-NT on intact E. coli cells; conditions: 5 nM agonist [3H]-NT
# [^3H]-neurotensin = saturation binding assay on intact E. coli cells
# [1] = molecular target: NTS1-7l, MBP and TrxA-H10 fusion (rat) (UniProt P20789); assay: radioligand binding; saturation binding of 1 pM to 10 nM [^3H]-NT to intact E. coli cells expressing the receptor; TEBB buffer, no detergents, 2 hours on ice, GF/B filters; apparent KD, one-site with ligand depletion
# Sequence of NTS1-7l, MBP and TrxA-H10 fusion (rat) (P20789 43-424): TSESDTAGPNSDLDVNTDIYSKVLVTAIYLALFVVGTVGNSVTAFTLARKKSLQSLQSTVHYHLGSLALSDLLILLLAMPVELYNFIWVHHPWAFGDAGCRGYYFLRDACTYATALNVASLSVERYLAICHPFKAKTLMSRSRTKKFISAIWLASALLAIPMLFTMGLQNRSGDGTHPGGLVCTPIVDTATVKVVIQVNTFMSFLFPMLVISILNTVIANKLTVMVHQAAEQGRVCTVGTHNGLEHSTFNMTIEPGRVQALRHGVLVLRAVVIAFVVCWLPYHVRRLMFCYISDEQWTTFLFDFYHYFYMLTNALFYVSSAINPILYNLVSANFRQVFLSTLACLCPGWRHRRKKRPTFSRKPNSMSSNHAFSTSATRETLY
# [2] = molecular target: NTS1-7o, MBP and TrxA-H10 fusion (rat) (UniProt P20789); assay: as above
# Sequence of NTS1-7o, MBP and TrxA-H10 fusion (rat) (P20789 43-424): as above
# Sequence of wild-type NTS1 (N-terminally truncated rat neurotensin type I receptor starting at Thr43), MBP and TrxA-H10 fusion (from UniProt P20789) A86L; I260A; F342A; F358A (P20789 whole entry A86L/I260A/F342A/F358A, looked up, the tested form may be a part): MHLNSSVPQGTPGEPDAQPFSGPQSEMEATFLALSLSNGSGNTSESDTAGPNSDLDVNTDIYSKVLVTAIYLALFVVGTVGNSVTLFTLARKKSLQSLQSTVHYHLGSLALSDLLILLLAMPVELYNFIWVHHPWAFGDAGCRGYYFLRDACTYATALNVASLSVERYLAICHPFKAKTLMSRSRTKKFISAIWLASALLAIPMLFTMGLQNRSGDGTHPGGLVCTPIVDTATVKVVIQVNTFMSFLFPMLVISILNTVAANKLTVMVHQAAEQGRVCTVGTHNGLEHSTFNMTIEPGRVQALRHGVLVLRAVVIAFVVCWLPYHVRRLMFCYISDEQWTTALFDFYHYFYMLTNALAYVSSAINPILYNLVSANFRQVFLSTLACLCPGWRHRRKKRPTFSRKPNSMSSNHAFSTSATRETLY
# Sequence of wild-type NTS1 (N-terminally truncated rat neurotensin type I receptor starting at Thr43), MBP and TrxA-H10 fusion (from UniProt P20789) A86L; F358A (P20789 whole entry A86L/F358A, looked up, the tested form may be a part): as the sequence (P20789 whole entry A86L/I260A/F342A/F358A, looked up, the tested form may be a part) above, with A260I, A342F counted along it
# Sequence of wild-type NTS1 (N-terminally truncated rat neurotensin type I receptor starting at Thr43), MBP and TrxA-H10 fusion (from UniProt P20789) NTS1-7g (P20789 whole entry, looked up, change not shown, the tested form may be a part): as the sequence (P20789 whole entry A86L/I260A/F342A/F358A, looked up, the tested form may be a part) above, with L86A, A260I, A342F, A358F counted along it
# Sequence of wild-type NTS1 (N-terminally truncated rat neurotensin type I receptor starting at Thr43), MBP and TrxA-H10 fusion (from UniProt P20789) NTS1-7o (P20789 whole entry, looked up, change not shown, the tested form may be a part): as the sequence (P20789 whole entry A86L/I260A/F342A/F358A, looked up, the tested form may be a part) above, with L86A, A260I, A342F, A358F counted along it
# Sequence of wild-type NTS1 (N-terminally truncated rat neurotensin type I receptor starting at Thr43), MBP and TrxA-H10 fusion (from UniProt P20789) NTS1-7e (P20789 whole entry, looked up, change not shown, the tested form may be a part): as the sequence (P20789 whole entry A86L/I260A/F342A/F358A, looked up, the tested form may be a part) above, with L86A, A260I, A342F, A358F counted along it
# Sequence of wild-type NTS1 (N-terminally truncated rat neurotensin type I receptor starting at Thr43), MBP and TrxA-H10 fusion (from UniProt P20789) NTS1-7f (P20789 whole entry, looked up, change not shown, the tested form may be a part): as the sequence (P20789 whole entry A86L/I260A/F342A/F358A, looked up, the tested form may be a part) above, with L86A, A260I, A342F, A358F counted along it
# Sequence of wild-type NTS1 (N-terminally truncated rat neurotensin type I receptor starting at Thr43), MBP and TrxA-H10 fusion (from UniProt P20789) NTS1-7l (P20789 whole entry, looked up, change not shown, the tested form may be a part): as the sequence (P20789 whole entry A86L/I260A/F342A/F358A, looked up, the tested form may be a part) above, with L86A, A260I, A342F, A358F counted along it
Ki (SR142948) [nM],Kd ([^3H]-neurotensin) [nM],Kd [1] [nM],Kd [2] [nM],Substance
0.22,–,–,–,"wild-type NTS1 (N-terminally truncated rat neurotensin type I receptor starting at Thr43), MBP and TrxA-H10 fusion (from UniProt P20789) NTS1-7o"
1.2,–,–,–,"wild-type NTS1 (N-terminally truncated rat neurotensin type I receptor starting at Thr43), MBP and TrxA-H10 fusion (from UniProt P20789) A86L; I260A; F342A; F358A"
2.8,0.21,–,–,"wild-type NTS1 (N-terminally truncated rat neurotensin type I receptor starting at Thr43), MBP and TrxA-H10 fusion (from UniProt P20789) NTS1-7g"
0.91,0.14,–,–,"wild-type NTS1 (N-terminally truncated rat neurotensin type I receptor starting at Thr43), MBP and TrxA-H10 fusion (from UniProt P20789) NTS1-7e"
–,–,0.22,0.03,[^3H]-neurotensin (peptide)
0.73,0.04,–,–,"wild-type NTS1 (N-terminally truncated rat neurotensin type I receptor starting at Thr43), MBP and TrxA-H10 fusion (from UniProt P20789) NTS1-7f"
0.58,–,–,–,"wild-type NTS1 (N-terminally truncated rat neurotensin type I receptor starting at Thr43), MBP and TrxA-H10 fusion (from UniProt P20789) A86L; F358A"
0.32,–,–,–,"wild-type NTS1 (N-terminally truncated rat neurotensin type I receptor starting at Thr43), MBP and TrxA-H10 fusion (from UniProt P20789) NTS1-7l"
